Where no end group is shown, it is not given here.
Experiments:
[1] = target: T1, Anti-CD28 Fab (SEQ ID NOs: 696, 697); test: phage binding ELISA on captured anti-CD28 Fab; competitor CD28 antigen
T1 construct: Biotinylated and captured on neutravidin coated plates in the phage ELISA

[2] = target: T1, Anti-CD28 Fab (SEQ ID NOs: 696, 697); test: phage binding ELISA; biotinylated anti-CD28 Fab on neutravidin plate, anti-M13 HRP detection
[3] = target: anti-CD28 Fab; test: competition ELISA, peptide titrated 0-100 uM against 1 nM anti-CD28 Fab, plate-bound CD28 as competitor
[4] = target: Ab-15; test: competition ELISA: peptide titrated against 1 nM Ab-15; competitor plate-bound CD28
[5] = target: Ab-15; test: BLI (Octet): sensor loaded with 200 nM biotinylated peptide, 100 nM Ab-15;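 also: binding association and dissociation tracked in real time, fitted to a 1:1 binding model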
[6] = target: Ab-15; test: binding ELISA: biotinylated peptide on neutravidin plate, Ab-15 titrated

Binder	Anti-CD28 Fab signal in the presence of CD28 [1]	Anti-CD28 Fab (SEQ ID NOs: 696, 697) signal [2]	IC50 [3]	other results
YWSCFQIPFTCFYF (Clonal phage supernatant; also called Peptide-75; not shown: fused to the pIII filament protein of the bacteriophage) [Phage-454]	0.27	1.44		
YCAGHSPINIGKCL (cysteine pairing not given here; also: displayed as fusion to phage pIII, linker and pIII sequence not given here, Clonal phage supernatant; also called Peptide-84; not shown: fused to the pIII filament protein of the bacteriophage) [Phage-463]	0.06	1.49		
WECLKYTEANACTY (Clonal phage supernatant; also called Peptide-76; not shown: fused to the pIII filament protein of the bacteriophage) [Phage-455]	0.07	1.55		
WCWDYREWVPMTCP (cysteine pairing not given here; also: displayed as fusion to phage pIII, linker and pIII sequence not given here, Clonal phage supernatant; also called Peptide-82; not shown: fused to the pIII filament protein of the bacteriophage) [Phage-461]	0.08	2.3		
WCWYYREWVPMTCP (cysteine pairing not given here; also: displayed as fusion to phage pIII, linker and pIII sequence not given here, Clonal phage supernatant; also called Peptide-88; not shown: fused to the pIII filament protein of the bacteriophage) [Phage-467]	0.07	1.85		
SCSAGAHYPWPQCF [Peptide-148]			5670 nM	
TCAAGATWSWPACF [Peptide-142]			620 nM	
ACDTYFAGMINECF (cysteine pairing not given here; also: displayed as fusion to phage pIII, linker and pIII sequence not given here, Clonal phage supernatant; also called Peptide-79; not shown: fused to the pIII filament protein of the bacteriophage) [Phage-458]	0.1	0.92		
GDWCPRDLWVHCFA (cysteine pairing not given here; also: biotinylated, site not given here, CD28 peptide mask) [Peptide-58]				IC50 [4]: 7060 nM; Octet signal [5]: 0.479; t1/2 [5]: 3.9 min; EC50 [6]: 73.9 nM
LDWCPRDLWVHCFA (cysteine pairing not given here; also: biotinylated, site not given here, CD28 peptide mask) [Peptide-61]				IC50 [4]: 630 nM; Octet signal [5]: 1.37; t1/2 [5]: 4.5 min; EC50 [6]: 23.4 nM
FDWCPRDLWVHCFA (cysteine pairing not given here; also: biotinylated, site not given here, CD28 peptide mask) [Peptide-63]				IC50 [4]: 780 nM; Octet signal [5]: 1.01; t1/2 [5]: 3.3 min; EC50 [6]: 39.3 nM
VDWCPRDLWVHCFA (cysteine pairing not given here; also: biotinylated, site not given here, CD28 peptide mask) [Peptide-69]				IC50 [4]: 4420 nM; Octet signal [5]: 0.919; t1/2 [5]: 2.9 min; EC50 [6]: 32.5 nM
YDWCPRDLWVHCFA (cysteine pairing not given here; also: biotinylated, site not given here, CD28 peptide mask) [Peptide-68]				IC50 [4]: 3250 nM; Octet signal [5]: 0.849; t1/2 [5]: 2.9 min; EC50 [6]: 32.2 nM
HDWCPRDLWVHCFA (cysteine pairing not given here; also: biotinylated, site not given here, CD28 peptide mask) [Peptide-59]				IC50 [4]: 2180 nM; Octet signal [5]: 0.737; t1/2 [5]: 3 min; EC50 [6]: 45.4 nM
IDWCPRDLWVHCFA (cysteine pairing not given here; also: biotinylated, site not given here, CD28 peptide mask) [Peptide-60]				IC50 [4]: 2660 nM; Octet signal [5]: 0.845; t1/2 [5]: 3.1 min; EC50 [6]: 44.9 nM
SDWCPRDLWVHCFA (cysteine pairing not given here; also: biotinylated, site not given here, CD28 peptide mask) [Peptide-65]				IC50 [4]: 2630 nM; Octet signal [5]: 0.551; t1/2 [5]: 2.9 min; EC50 [6]: 66.5 nM
PDWCPRDLWVHCFA (cysteine pairing not given here; also: biotinylated, site not given here, CD28 peptide mask) [Peptide-64]				IC50 [4]: 8340 nM; Octet signal [5]: 0.328; t1/2 [5]: 3.4 min; EC50 [6]: 102 nM
WDWCPRDLWVHCFA (cysteine pairing not given here; also: biotinylated, site not given here, CD28 peptide mask) [Peptide-67]				IC50 [4]: 2800 nM; Octet signal [5]: 1.15; t1/2 [5]: 4.1 min; EC50 [6]: 21.7 nM
TCAAGAHYPWPACL [Peptide-154]			2200 nM	
GCQYPWAFDAMSCP (cysteine pairing not given here; also: displayed as fusion to phage pIII, linker and pIII sequence not given here, Clonal phage supernatant; also called Peptide-80; not shown: fused to the pIII filament protein of the bacteriophage) [Phage-459]	0.07	2.38		

Binder	Anti-CD28 Fab signal in the presence of CD28 [1]	Anti-CD28 Fab (SEQ ID NOs: 696, 697) signal [2]	IC50 [3]	other results
WCWDYKLWVPTQCP (cysteine pairing not given here; also: displayed as fusion to phage pIII, linker and pIII sequence not given here, Clonal phage supernatant; also called Peptide-81; not shown: fused to the pIII filament protein of the bacteriophage) [Phage-460]	0.14	2.27		
TCSAGASYPWPLCL [Peptide-139]			2190 nM	
TCSAGAAYPWPLCL [Peptide-145]			7700 nM	
TCSAGAHYPWPICL [Peptide-150]			4760 nM	
TCSAGATWPWPICL [Peptide-137]			890 nM	
TCSAGAAYSWPACF [Peptide-146]			16100 nM	
SCAAGASYAWPYCL (Clonal phage supernatant; also called Peptide-92; not shown: fused to the pIII filament protein of the bacteriophage) [Phage-471]	0.05	1.49		
TCAAGAAWPWPQCL [Peptide-140]			760 nM	
FMCLPQNPHPLCFK (Clonal phage supernatant; also called Peptide-77; not shown: fused to the pIII filament protein of the bacteriophage) [Phage-456]	0.06	0.84		
TCSAGATYTWPKCF [Peptide-141]			2220 nM	
LCAAGASWPWPVCL [Peptide-138]			3610 nM	
LCAAGATYPWPLCL [Peptide-144]			3040 nM	
LCAAGATYPWPTCL [Peptide-147]			8150 nM	
TCSAGATYEWPRCL [Peptide-149]			2660 nM	
TCSAGATWAWPLCF [Peptide-152]			2220 nM	
SCSAGAAYYWPWCL [Peptide-151]			80500 nM	
ECHWSMWAVGHACF (cysteine pairing not given here; also: displayed as fusion to phage pIII, linker and pIII sequence not given here, Clonal phage supernatant; also called Peptide-83; not shown: fused to the pIII filament protein of the bacteriophage) [Phage-462]	0.07	1.77		
TCAAGATYLWPTCL [Peptide-153]			8420 nM	
PDCQTILFKPWCVR (cysteine pairing not given here; also: displayed as fusion to phage pIII, linker and pIII sequence not given here, Clonal phage supernatant; also called Peptide-78; not shown: fused to the pIII filament protein of the bacteriophage) [Phage-457]	0.06	2.09		
TCAAGAAWGWPLCF [Peptide-143]			2560 nM	
